The supplement of paper PMC7877785
± gives the uncertainty stated by the source.

Experiment: self-splicing fitness, log relative to wild type (ln ratio); higher = more splicing; Tetrahymena group I intron in knt gene, E. coli kanamycin selection, DiMSum; sequences stand for … in CUCUCU…GGAGGGAAAAGUUAUCAGGCAUGCACCUGGUAGCUAGUCUUUAAACCAAUAGAUUGCAUCGGUUUAAAAGGCAAGACCGUCAAAUUGCGGGAAAGGGGUCAACAGCCGUUCAGUACCAAGUCUCAGGGGAAACUUUGAGAUGGCCUUGCAAAGGGUAUGGUAAUAAGCUGACGGACAUGGUCCUAACCACGCAGCCAAGUCCUAAGUCAACAGAUCUUCUGUUGAUAUGGAUGCAGUUCACAGACUAAAUGUCGGUCGGGGAAGAUGUAUUCUUCUCAUAAGAUAUAGUCGGACCUCUCCUUAAUGGGAGCUAGCGGAUGAAGUGAUGCAACACUGGAGCCGCUGGGAACUAAUUUGUAUGCGAAAGUAUAUUGAUUAGUUUUGGAGUACUCGUGGUCG
Method in brief: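 A randomised library covering all eight P1ex-region intron nucleotides was built with the intron in the knt kanamycin-resistance gene on pET-22b(+) and held in E. coli BL21(DE3). Cells were grown overnight at 37°C or 30°C on LB agar, with or without 25 μg/mL kanamycin, plus 100 μg/mL carbenicillin, 50 μM IPTG and 0.2% rhamnose, and pooled colonies were amplicon-sequenced on an Illumina HiSeq 2500. DiMSum fitness is the error-weighted combination of wild-type-normalised replicate fold changes, kanamycin versus none.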

Row | Sequence | self-splicing fitness (ln) (30 °C) | self-splicing fitness (ln) (37 °C)
1 | AGCUAGCAAUAUUACGGUAA | -2.34 ± 0.26 | -1.53 ± 0.26
2 | AGCUAGCAAUAUUACGGUCA | -0.312 ± 0.067 | 0.192 ± 0.083
3 | AGCUAGCAAUAUUACGGUCG | -0.942 ± 0.072 | 0.371 ± 0.1
4 | AGCUAGCAAUAUUACGUAAU | -3.29 ± 0.16 | -0.924 ± 0.11
5 | AGCUAGCAAUAUUACGUCAG | -3.09 ± 0.18 | -2.84 ± 0.22
6 | AGCUAGCAAUAUUACGUGAA | -1.58 ± 0.13 | -1.05 ± 0.15
7 | AGGAAGCAAUAUUACGAAAG | -2.44 ± 0.23 | -1.19 ± 0.35
8 | AGGAAGCAAUAUUACGACUG | -0.619 ± 0.094 | 0.0357 ± 0.1
9 | AGGAAGCAAUAUUACGAGCC | -2.25 ± 0.23 | -1.32 ± 0.27
10 | AGGAAGCAAUAUUACGAGGG | -3.63 ± 0.26 | -3.07 ± 0.29
11 | AGGAAGCAAUAUUACGCAUC |  | -1.85 ± 0.41
12 | AGGAAGCAAUAUUACGCCGU | -1.28 ± 0.24 | -0.629 ± 0.33
13 | AGGAAGCAAUAUUACGCCUU | -2.67 ± 0.2 | -0.955 ± 0.18
14 | AGGAAGCAAUAUUACGCGAA | -1.83 ± 0.12 | -1.38 ± 0.14
15 | AGGAAGCAAUAUUACGCUUG | -2.64 ± 0.14 | -0.302 ± 0.11
16 | AGGAAGCAAUAUUACGGGAC | -3.5 ± 0.46 | -1.67 ± 0.23
17 | AGGAAGCAAUAUUACGGGAU | -2.75 ± 0.19 | -2.06 ± 0.18
18 | AGGAAGCAAUAUUACGGGGU | -3.19 ± 0.21 | -3.13 ± 0.43
19 | AGGAAGCAAUAUUACGGUAA | -2.47 ± 0.2 | -2.26 ± 0.18
20 | AGGAAGCAAUAUUACGGUAU | -2.52 ± 0.28 | -0.707 ± 0.24
21 | AGGAAGCAAUAUUACGUAUU | -3.54 ± 0.24 | -0.582 ± 0.15
22 | AGGAAGCAAUAUUACGUCAA | -3.36 ± 0.22 | -3.71 ± 0.27

Row | Sequence | self-splicing fitness (ln) (30 °C) | self-splicing fitness (ln) (37 °C)
23 | AGGAAGCAAUAUUACGUUCG | -0.643 ± 0.071 | -0.266 ± 0.11
24 | AGGCAGCAAUAUUACGAAGU | -2.32 ± 0.1 | -0.471 ± 0.098
25 | AGGCAGCAAUAUUACGAAUU | -1.29 ± 0.064 | -1.4 ± 0.093
26 | AGGCAGCAAUAUUACGACUG | -1.99 ± 0.14 | -2.18 ± 0.18
27 | AGGCAGCAAUAUUACGACUU | -0.0645 ± 0.048 | 0.187 ± 0.065
28 | AGGCAGCAAUAUUACGAGAU | -3.01 ± 0.15 | -2.26 ± 0.2
29 | AGGCAGCAAUAUUACGAGCU | -0.501 ± 0.1 | -0.299 ± 0.13
30 | AGGCAGCAAUAUUACGAGGA | -3.31 ± 0.28 | -2.55 ± 0.26
31 | AGGCAGCAAUAUUACGAGUA | -1.94 ± 0.15 | -1.65 ± 0.14
32 | AGGCAGCAAUAUUACGAUGA | -1.23 ± 0.13 | 0.113 ± 0.14
33 | AGGCAGCAAUAUUACGCAGC | -4.21 ± 0.42 | -2.84 ± 0.31
34 | AGGCAGCAAUAUUACGCAGG | -1.39 ± 0.084 | -1.17 ± 0.1
35 | AGGCAGCAAUAUUACGCCAC | -3.45 ± 0.18 | -2.48 ± 0.3
36 | AGGCAGCAAUAUUACGCGAU | -4.3 ± 0.42 | -1.93 ± 0.21
37 | AGGCAGCAAUAUUACGCUCU | -2.31 ± 0.34 | 
38 | AGGCAGCAAUAUUACGGCUG | -2.3 ± 0.35 | 
39 | AGGCAGCAAUAUUACGUCAG | -1.92 ± 0.12 | -0.461 ± 0.12
40 | AGGCAGCAAUAUUACGUGCA | -1.01 ± 0.1 | -0.142 ± 0.14
41 | AGGCAGCAAUAUUACGUGCG | -0.971 ± 0.082 | -0.24 ± 0.11
42 | AGGGAGCAAUAUUACGACAA | -3.29 ± 0.29 | -3.44 ± 0.42
43 | AGGGAGCAAUAUUACGAGCA | -3.26 ± 0.25 | -2.64 ± 0.21
